Assay: soluble on expression in E. coli; label from the status in PepcDB or PDB records

Row | Sequence | soluble on expression in E. coli
1 | AAIAEKDLGNAAYKQKDFEKAHVHYDKAIELDPSNITFYNNKAAVYFEEKKFAECVQFCEKAVEVGRETRADYKLIAKAMSRAGNAFQKQNDLSLAVQWFHRSLSEFRDPELVKKVKELEKQLKAAERLAYINPELAQEEKNKGNEYFKKGDYPTAMRHYNEAVKRDPENAILYSNRAACLTKLMEFQRALDDCDTCIRLDSKFIKGYIRKAACLVAMREWSKAQRAYEDALQVDPSNEEAREGVRNCLRSNDEDPEKAKERSLADPEVQEILRDPGMRMILEQMSNDPGAVREHLKNPEIFQKLMKLRD | not soluble
2 | AAVEDNHLLIKAVQNEDVDLVQQLLEGGANVNFQEEEGGWTPLHNAVQMSREDIVELLLRHGADPVLRKKNGATPFLLAAIAGSVKLLKLFLSKGADVNECDFYGFTAFMEAAVYGKVKALKFLYKRGANVNLRRKTKEDQERLRKGGATALMDAAEKGHVEVLKILLDEMGADVNACDNMGRNALIHALLSSDDSDVEAITHLLLDHGADVNVRGERGKTPLILAVEKKHLGLVQRLLEQEHIEINDTDSDGKTALLLAVELKLKKIAELLCKRGASTDCGDLV | soluble
3 | ADVILFPSKNGAVTFTHKRHSEFVRECRSCHEKTPGKIRNFGKDYAHKTCKGCHEVRGAGPTKCKLCHTG | soluble
4 | AEAKSKLTVALGKDIAGTPVVGDLAKMPHLLVAGMTGSGKSVGVNGMIMSMLFKATPDEVRFIMIDPKMLELSIYDGIPHLLCPVVTDMREAGQALNWCVAEMEKRYRLLSHAGVRNLEGFNQKVEAAKAAGKPLLNPFSLNPDEPEPLEKLPLIVVVIDELADLMMTERKAVEQQIARLAQKARAAGIHMIVATQRP | not soluble
5 | AEPESCGTVRFSDVGWTDITATTATATTILEALGYETDVKVLSVPVTYTSLKNKDIDVFLGNWMPTMEADIAPYREDKSVETVRENLAGAKYTLATNAKGAELGIKDFKDIAAHKDELDGKIYGIEPGNDGNRLIIDMVEKGTFDLKGFEVVESSEQGMLAQVARAEKSGDPIVFLGWEPHPMNANFKLTYLSGGDDVFGPNYGGATVHTNVRAGYTTECPNVDKLLQNLSFSLQMENEIMGKILNDGEDPEKAAAAWLKDNPQSIEPWLSGVATKDGGDGLAAVKAALGLEHHHHHH | soluble
6 | AEQDMYLLRQSFGKHKTVSAGVPWFSTLFGRDSLITASQTLMLNSQIAKETLILLAKYQGKIDDEWREEEPGKILHELRLGEMARCQEIPHTPYYGTVDATPLWLMLYAEHYAWTHDQELLELLWPNALAAMDWIDRNTKQTSYLSYFRKSKRGLANQGWKDSGDCIVNHKGELANGPIALCEVQAYVYAAKTRLAEIARMKKRLDLADRWLEEARSLKVRFNRDFWVEDQDFCALALDGDGKPVDSITSNPGHCLHLGLFTHERAYSVAERLRAPDMFNGWGIRTLSSLSPAYNPMGYHIGSVWPHDNALIAMGLRSLGLIDQALELFQGLFDMTSQQPYERPPELFCGYERNGDNAPVQYPVACTPQAWATGSIFQ | not soluble
7 | AERPTLPIPDLLTTDARNRIQLTIGAGQSTFGGKTATTWGYNGNLLGPAVKLQRGKAVTVDIYNQLTEETTLHWHGLEVPGEVDGGPQGIIPPGGKRSVTLNVDQPAATCWFHPHQHGKTGRQVAMGLAGLVVIEDDEILKLMLPKQWGIDDVPVIVQDKKFSADGQIDYQLDVMTAAVGWFGDTLLTNGAIYPQHAAPRGWLRLRLLNGCNARSLNFATSDNRPLYVIASDGGLLPEPVKVSELPVLMGERFEVLVEVNDNKPFDLVTLPVSQMGMAIAPFDKPHPVMRIQPIAISASGALPDTLSSLPALPSLEGLTVRKLQLSMDGGANKINGQAFDMNKPMFAAAKGQYERWVISGVGDMMLHPFHIHGTQFRILSENGKPPAAHRAGWKDTVKVEGNVSEVLVKFNHDAPKEHAYMAHCHLLEHEDTGMMLGFTVGHHHHH | soluble
8 | AEVLLGSSDGGLAFVPSDLSIASGEKITFKNNAGFPHNDLFDKKEVPAGVDVTKISMPEEDLLNAPGEEYSVTLTEKGTYKFYCAPHAGAGMVGKVTVN | soluble
9 | AFVKMVGHHVAFLEADVLQAERDHGAFPQALRRWLGSAGLPSFRNVSGVQWHNPSSLQPPPPGFK | not soluble
10 | AGIVNQVTAKNITADLQGGYPWSESNPLLLSDVSVDVLGGQIIMKQLRMPQHDPALLRVQNISSSELISAINPKQFAMSGPVSGALPLWLNNEKWIIKDGWLTNPGPMTLRIDKDTADAVVKDNVTAGSAINWLRYMEITHSWTKINVDNLGVLTMQAAITGKSRVDGKTAIVNLNYTHEENVFTLWRSLRFGDNLQAWLEQNTALPQPP | not soluble
11 | AGKPVLHYFNARGRMECIRWLLAAAGVEFEEKFIQSPEDLEKLKKDGNLMFDQVPMVEIDGMKLAQTRAILNYIATKYDLYGKDMKERALIDMYSEGILDLTEMIGQLVLCPPDQREAKTALAKDRTKNRYLPAFEKVLKSHGQDYLVGNRLTRVDIHLLEVLLYVEEFDASLLTPFPLLKAFKSRISSLPNVKKFLQPGSQRKPPMDAKQIQEARKAFKIQ | soluble
12 | AGMSLTQVSGPVYVVEDNYYVQENSMVYFGAKGVTVVGATWTPDTARELHKLIKRVSRKPVLEVINTNYHTDRAGGNAYWKSIGAKVVSTRQTRDLMKSDWAEIVAFTRKGLPEYPDLPLVLPNVVHDGDFTLQEGKVRAFYAGPAHTPDGIFVYFPDEQVLYGGCILKEKLGNLSFADVKAYPQTLERLKAMKLPIKTVIGGHDSPLHGPELIDHYEALIKAAPQSS | soluble
13 | AGQKVMITKMITDSVANPQMKQAFEQRLAKASTEDALNDIKRDIIRSAI | soluble
14 | AHHHHHHGSAGIEVQILEKKEDSIKFVLKGVHVSFANALRRTILGEVPTFAVDEVEFYENDSALFDEIIAHRLAMIPLTTPVDRFELDALELDDYTVTLSLEAEGPGIVYSGDLKSDDPDVKPVNPNIPIVKLAEGQRLVFNAYAKLGRGKDHAKWQPGFVYYKYYTIVHISKSIPEWKELKKLAKKRGLPVEETEEEVLVTTIKPFYIPKDFEEYEGKEIWEEIVPNTYIFTVETNGELPVEEIVSIALKILMRKADRFISELQKLTS | soluble
15 | AHHHHHHGSAQLAGQPILILPEGTQRYVGRDAQRMNILAARIVAETIRTTLGPKGMDKMLVDSLGDIVITNDGATILDEMDIQHPAAKMMVEVAKTQDKEAGDGTTTAVVIAGELLRKAEELLDQNIHPSIIIKGYTLAAQKAQEILENIAKEVKPDDEEILLKAAMTSITGKAAEEEREYLAKLAVEAVKLVAEKEDGKYKVDIDNIKLEKKEGGSVRDTQLIRGVVIDKEVVHPGMPKRVEKAKIALINDALEVKETETDAEIRITSPEQLQAFLEQEERMLREMVEKIKEVGANVVFVQKGIDDLAQHYLAKYGIMAVRRVKKSDMEKLAKATGAKIVTNIRDLTPEDLGYAELVEERKVAGESMIFVEGCQNPKAVTILIRGGTEHVVDEVERALEDAIKVVKDILEDGKILAGGGAPEIELAIRLDEYAKEVGGKEQLAIEAFAEALKVIPRTLAENAGLDPIETLVKVIAAHKEKGPTIGVDVYEGEPADMLERGVIEPLRVKKQAIKSASEAAIMILRIDDVIAASKLEKEKEKEGEKGGGSEDFSSDLD | not soluble
16 | AHHHHHHGSEEKIILFVCVKNSARSQMAEAFFNYYNDDPRFKAMSAGTEPADDIDPLAKKVMEEIGISLEGQKPKLYTPEMADKAYIVITMGCLDKCPYAPPEKTWDWGLEDPYGKPIEKYREVRDEIKRRVLKLIEDLKAGKSREEIIGRKSLFAI | soluble
17 | AHHHHHHGSEIDKGLAKFGDSLINFLYSLALTEFLGKPTGDRVPNASLAIALELTGLSKNLRRVDKHAKGDYAEALIAKAWLMGLISEREAVEIIKKNLYPEVLDFSKKKEAIGRALAPLLVIISERLYSSQV | soluble
18 | AHHHHHHGSEIYEGKAKKMIPLDEDKFIMEFKDDATAFDGVKKAKFVGKGWLNAQISAKLFKLLEDHGIKTHFIGVAGGNRLIVERLEMYPIEVVVRNVVAGSLKKRLPLPEGYELPEPIVELYYKSDELHDPMINYYHARILGISEEEIKEMERIALKVNEILKKFFREKGIILVDFKLEFGKNKKGEIVLADEISPDTCRFWDVETKKSLDKDVFRFDKGDLIEAYKELYKRLIGEEPQI | not soluble
19 | AHHHHHHGSEKQGEKMKRLGKVLHYAKQGFLIVRTNWVPSLNDRVVDKRLQFVGIVKDVFGPVKMPYVAIKPKVSNPEIYVGEVLYVDERKRKESPKKNKEKRMKKKKRLNR | not soluble
20 | AHHHHHHGSGGLALEGRSIVFASGKGGTGKTTTVANIGVALAQFGKEVILIDADITMANLSLILGMEDIPITLHDVLAGEAELKDAIYEGPAGVKVIPGGLSLEKVKKARPERLRELIKEISQMGDFILIDAPAGLELTSVTALLIGKELIIVTNPEISAITDSLKTKLVAEKLGTLPLGAILNRVTSEKTELSKEEIEAILEVPVIGIVPEDPEVKRASAYGVPLVIKNPTSPAAIAYKQIAAKLAGIKWTPPEPESPVKRIFKALFGGKR | soluble
21 | AHHHHHHGSIRRVKREIRVIGFDDGTFPHKKRGEKVILVGIVMKGGSDVLGAVSRWITIDGLDVTEAIIDSILSSRFRGDLRVILLKGITYAGFNVVDVNRVFRETGLPLIVVVRKRPDFEAIENALRKHFEDWEKRMELIKAGGKIYELIPGKVYYQAIGIDAETAAKIIRATSRNSLIPEALRIAHIVASAVMRGESSKE | not soluble
22 | AHHHHHHGSKTFLTEQQIKVLMLRAKGYKQSEIAKILGTSRANVSILEKRAMEKIEKARNTLLLWEQINSKVIVEIKAGEDIFSIPEKFFKKADKVGVKVPYSTAEIITFLVEHAPVEDRLAKRDFVLFLDSKNKLRIGDCLVIEEIKED | soluble
23 | AHHHHHHGSLPKNYDPNEIEPKWQKYWLEEKIYKYKLEPDKPSYAIDTPPPFTSGTLHLGHVLSHTWIDIIARYKRMRGYNVLFPQGFDNHGLPTELKVEKEFGISKDQPEEFLKKCIEWTWQAIEKMRAQFIRIGYSADWDLEYHTMDDWYKAAVQKSLLDFYKKGLIYREEHPVYWCPRCRTSLAKAEVGYVEEEGYLYYIKLPLADGSGYIPIATTRPELMPACVAVFVHPDDERYKHLVGKKVKLPIYEREVPILADEDVDPNFGTGAVYNCTYGDEQDIVWQKRYNLPVIIAINEDGTMNENAGPYAGLKIEEARKKIAEDLEKMGLLYKKEKITHRVLRHTERSSCMAPIELLPKKQWFIKVREFTDDIVEVAKKINWYPEDMFLRLKDWAESMDWDWVISRQRVFGTPIPFWICKNGHIIPAREEDLPVDPRFDKPPVEKCPVCGAEIEPVTDVLDCWVDSSITPLIITKWHEAIKGDEEAKKWFEHNFPTALRPQGTDIIRTWAFYTIFRTYMLTGEKPWNDIVINGMVAGPDGRKMSKSYGNVVSPEEVIPKYGADALRLWTALAPPGEDHPFKWEIVDYNFRFLQKLWNIYRFAERHIKDFDYEKYKHIELEPLDRWILSRLHRIIKFATEELEKYRFNLITRELMTFIWHEVADDYIEMIKHRLYGEDEESKLKAKVALYELLYNIMLLLAPFVPHITEELYHHIFKEKIGEKSVHLLQWPEYREDRIDEEAEKIGELAREIVSAMRKYKNSHGMPLNAKLKHVAIYATDSYEMLKVIEKDIAGTMNIERLEIVKGEPQLEEKVVEIKPIYKRIGPRYGKLVPKIVKHLQENAEEIGRRIKEEGKVEFEVEGQKVVLEKEDIEIKKAVFSEGEEVETAVVRDATILFF | not soluble
24 | AHHHHHHGSNAVEIISREISPTLDIQTKILEYMTDFFVKEGFKWLLPVIISPITDPLWPDPAGEGMEPAEVEIYGVKMRLTHSMILHKQLAIAMGLKKIFVLSPNIRLESRQKDDGRHAYEFTQLDFEVERAKMEDIMRLIERLVYGLFRKAEEWTGREFPKTKRFEVFEYSEVLEEFGSDEKASQEMEEPFWIINIPREFYDREVDGFWRNYDLILPYGYGEVASGGEREWEYEKIVAKIRKAGLNEDSFRPYLEIAKAGKLKPSAGAGIGVERLVRFIVGAKHIAEVQPFPRIPGIPAVI | soluble

From the DeepSol protein solubility set
